{"source": "patent US6730293B1", "about": "“Compositions and methods for treating inflammatory diseases of the skin” (CellGate, Inc., priority 1999, dated 2004)", "key": {"skin of nude mice [1]": {"system": "skin of nude mice", "experiment": "Penetration of hydrocortisone-biotinylated D-arginine conjugates into skin of nude mice", "assay_type": "in vivo", "conditions": "back of nude mice, in PBS, 30, 60, 120 minutes", "protocol": "(§1) Slides were analyzed by fluorescent microscopy."}, "skin of nude mice [2]": {"system": "skin of nude mice", "experiment": "Penetration of taxol-biotinylated D-arginine conjugates into skin of nude mice", "assay_type": "in vivo", "conditions": "back of nude mice, 1 mM-100 μM in PBS, 30, 60, 120 minutes", "protocol": "as §1"}, "[3]": {"system": "CD3+ T cells in inflamed skin", "conditions": "mouse, in vivo"}, "[4]": {"system": "full thickness human skin grafted onto the back of a SCID mouse", "conditions": "in vivo"}, "[5]": {"experiment": "pH dependent stability / release of releasable Cyclosporin A conjugate", "assay_type": "physicochemical", "conditions": "acidic pH vs physiological pH, absence of serum", "description": "See, e.g., R. E. Handschumacher, et al., Science 226, 544-7 (1984).\nAnother modification in the design of the releasable conjugate was the use of L-arginine (R), and not D-arginine (r) in the transporter."}, "[6]": {"system": "abdominal skin of nude mice", "experiment": "Penetration of Cu-DTPA-r7 complex into skin of nude mice (blue color)", "assay_type": "in vivo", "conditions": "abdominal region of nude mice, 15, 30 and 45 minutes", "protocol": "Metal diethylenetriaminepentaacetic acid (DTPA) complexes were formed by mixing equimolar amounts of metal salts with DTPA in water for 18 hours. At the end of this time, the solutions were centrifuged, frozen and lyophilized. The dried powder was characterized by mass spectrometry and used in solid phase peptide synthesis. The metal-DTPA complexes were attached to polymers of D- or L-arginine that were still attached to solid-phase resin used in peptide synthesis. The metal-DTPA complexes were attached using an aminocaproic acid spacer. The solid phase peptide synthesis techniques were described in Example 1, with the exception that cleavage of the peptide-DTPA -metal complex in trifluoroacetic acid released the metal. The metal is replaced after HPLC purification and lyophilization of the peptide-DTPA complex. Replacement of the metal involved incubation of equimolar amounts of the metal salt with the peptide-aminocaproic acid-DTPA complex and subsequent lyophilization.\nVarying concentrations (1 M to 1 mM) of the Cu-DTPA -aca-r7 complex were applied to the abdominal region of nude mice for 15, 30 and 45 minutes. As controls, an equimolar amount of the Cu-DTPA complex was spotted onto the abdominal region."}}, "note": "Square brackets hold non-standard residues; d marks the D form. Peptide text beside a SMILES is read from it. * marks the point of attachment. X1 = C[C@]12CCC(=O)C=C1CC[C@@H]1[C@@H]2[C@@H](O)C[C@@]2(C)[C@H]1CC[C@]2(O)C(=O)COC(=O)C*; Biotin = O=C1N[C@H]2[C@H](CS[C@H]2CCCCC(=O)*)N1; Ahx = NCCCCCC(=O)O"}
{"molecule": "C[C@H](NC(=O)[C@H](C)NC(=O)[C@@H](CCCNC(=N)N)NC(=O)[C@@H](CCCNC(=N)N)NC(=O)[C@@H](CCCNC(=N)N)NC(=O)[C@@H](CCCNC(=N)N)NC(=O)[C@@H](CCCNC(=N)N)NC(=O)CCCCCNC(=O)CCCC[C@@H]1SC[C@@H]2NC(=O)N[C@@H]21)C(=O)N[C@@H](CSCC(=O)OCC(=O)[C@@]1(O)CC[C@H]2[C@@H]3CCC4=CC(=O)CC[C@]4(C)[C@H]3[C@@H](O)C[C@@]21C)C(N)=O", "note": "({Biotin-Ahx}-[dR][dR][dR][dR][dR]AAC(X1)-NH2)", "values": [{"measurement": "penetration into skin (fluorescent streptavidin staining)", "setting": "skin of nude mice [1]", "value": "very little uptake"}]}
{"molecule": "C[C@H](NC(=O)[C@H](C)NC(=O)[C@@H](CCCNC(=N)N)NC(=O)[C@@H](CCCNC(=N)N)NC(=O)[C@@H](CCCNC(=N)N)NC(=O)[C@@H](CCCNC(=N)N)NC(=O)[C@@H](CCCNC(=N)N)NC(=O)[C@@H](CCCNC(=N)N)NC(=O)[C@@H](CCCNC(=N)N)NC(=O)CCCCCNC(=O)CCCC[C@@H]1SC[C@@H]2NC(=O)N[C@@H]21)C(=O)N[C@@H](CSCC(=O)OCC(=O)[C@@]1(O)CC[C@H]2[C@@H]3CCC4=CC(=O)CC[C@]4(C)[C@H]3[C@@H](O)C[C@@]21C)C(N)=O", "note": "({Biotin-Ahx}-[dR][dR][dR][dR][dR][dR][dR]AAC(X1)-NH2)", "values": [{"measurement": "penetration into skin (fluorescent streptavidin staining)", "setting": "skin of nude mice [1]", "value": "effectively entered into and across the epidermis and into the dermis"}]}
{"molecule": "CC(=O)O[C@H]1C(=O)[C@@]2(C)[C@H]([C@H](OC(=O)c3ccccc3)[C@]3(O)C[C@H](OC(=O)[C@H](OC(=O)NCCCC[C@H](NC(=O)[C@@H](CCCNC(=N)N)NC(=O)[C@@H](CCCNC(=N)N)NC(=O)[C@@H](CCCNC(=N)N)NC(=O)[C@@H](CCCNC(=N)N)NC(=O)[C@@H](CCCNC(=N)N)NC(=O)[C@@H](CCCNC(=N)N)NC(=O)[C@@H](CCCNC(=N)N)NC(=O)[C@@H](CCCNC(=N)N)NC(=O)[C@@H](CCCNC(=N)N)NC(=O)CCCCCNC(=O)CCCC[C@@H]4SC[C@@H]5NC(=O)N[C@@H]54)C(N)=O)[C@@H](NC(=O)c4ccccc4)c4ccccc4)C(C)=C1C3(C)C)[C@]1(OC(C)=O)CO[C@@H]1C[C@@H]2O", "note": "[B-aca-r9-K-taxol]", "values": [{"measurement": "penetration into skin (fluorescent streptavidin staining)", "setting": "skin of nude mice [2]", "value": "effectively entered into and across the epidermis and into the dermis"}]}
{"molecule": "C/C=C/C[C@@H](C)[C@@H](OC(=O)CSC[C@H](NC(=O)[C@@H](CCCNC(=N)N)NC(=O)[C@@H](CCCNC(=N)N)NC(=O)[C@@H](CCCNC(=N)N)NC(=O)[C@@H](CCCNC(=N)N)NC(=O)[C@@H](CCCNC(=N)N)NC(=O)[C@@H](CCCNC(=N)N)NC(=O)[C@@H](CCCNC(=N)N)NC(=O)CCCCCNC(=O)CCCC[C@@H]1SC[C@@H]2NC(=O)N[C@@H]21)C(N)=O)[C@H]1C(=O)N[C@@H](CC)C(=O)N(C)CC(=O)N(C)[C@@H](CC(C)C)C(=O)N[C@@H](C(C)C)C(=O)N(C)[C@@H](CC(C)C)C(=O)N[C@@H](C)C(=O)N[C@H](C)C(=O)N(C)[C@@H](CC(C)C)C(=O)N(C)[C@@H](CC(C)C)C(=O)N(C)[C@@H](C(C)C)C(=O)N1C", "note": "[biotin r7 CsA, B-aca-r7-Cys-O-acyl-Cyclosporin A]", "values": [{"measurement": "presence in CD3+ T cells of inflamed skin", "setting": "[3]", "value": "found in all CD3[+] T cells"}, {"measurement": "penetration into human skin", "setting": "[4]", "value": "penetrated human epidermis and dermis"}]}
{"molecule": "C/C=C/C[C@@H](C)[C@@H](OC(=O)CN(Cc1ccccc1)C(=O)CNCC(=O)N[C@@H](CCCNC(=N)N)C(=O)N[C@@H](CCCNC(=N)N)C(=O)N[C@@H](CCCNC(=N)N)C(=O)N[C@@H](CCCNC(=N)N)C(=O)N[C@@H](CCCNC(=N)N)C(=O)N[C@@H](CCCNC(=N)N)C(=O)N[C@@H](CCCNC(=N)N)C(N)=O)[C@H]1C(=O)N[C@@H](CC)C(=O)N(C)CC(=O)N(C)[C@@H](CC(C)C)C(=O)N[C@@H](C(C)C)C(=O)N(C)[C@@H](CC(C)C)C(=O)N[C@@H](C)C(=O)N[C@H](C)C(=O)N(C)[C@@H](CC(C)C)C(=O)N(C)[C@@H](CC(C)C)C(=O)N(C)[C@@H](C(C)C)C(=O)N1C", "note": "[releasable R7 CsA conjugate]", "values": [{"measurement": "pH stability", "setting": "[5]", "value": "stable at acidic pH, but labile at physiological pH"}]}
{"molecule": "Copper-diethylenetriaminepentaacetic Acid Complex [Cu-DTPA]", "values": [{"measurement": "blue color on skin after wiping off", "setting": "[6]", "value": "not where the Cu-DTPA alone was spotted"}]}
